{
  "source": "patent US8604172B2",
  "about": "“Humanized antibody compositions and methods for binding lysophosphatidic acid” (Lpath, Inc., priority 2009, dated 2013)",
  "molecules": {"B1": {"name": "LT3000: Murine anti-LPA monoclonal antibody clone B7, IgG1k, renamed Lpathomab, also known as LT3000; hybridoma 504B7.1, ATCC PTA-8420 (antibody, V domains shown)", "VH": "QVQLQQSGAELVRPGTSVKVSCKASGYGFINYLIEWIKQRPGQGLEWIGLINPGSDYTNYNENFKGKATLTADKSSSTAYMHLSSLTSEDSAVYFCARRFGYYGSGNYFDYWGQGTTLTVSS", "VL": "DVVMTQTPLSLPVSLGDQASISCTSGQSLVHINGNTYLHWYLQKPGQSPKLLIYKVSNLFSGVPDRFSGSGSGTDFTLKISRVEAEDLGVYFCSQSTHFPFTFGTGTKLEIK"}},
  "key": {"[1]": {"experiment": "Competition ELISA (18:1 LPA coat), competitor 16:0 LPA", "assay_type": "binding", "conditions": "maximum inhibition", "method": "Many isoforms of LPA have been identified to be biologically active and it is preferable that the mAb recognize all of them to some extent to be of therapeutic relevance. The specificity of the anti-LPA mAbs was evaluated utilizing a competition assay in which the competitor lipid was added to the antibody-immobilized lipid mixture.\nCompetition ELISA assays were performed with the anti-LPA mAbs to assess their specificity. 18:1 LPA was captured on ELISA plates. Each competitor lipid (up to 10 uM) was serially diluted in BSA (1 mg/ml)-PBS and then incubated with the mAbs (3 nM). Mixtures were then transferred to LPA coated wells and the amount of bound antibody was measured with a secondary antibody. Data are normalized to maximum signal (A450) and are expressed as percent inhibition. Assays were performed in triplicate. IC50: Half maximum inhibition concentration; MI: Maximum inhibition (% of binding in the absence of inhibitor); - - -: not estimated because of weak inhibition. A high inhibition result indicates recognition of the competitor lipid by the antibody."}, "[2]": {"experiment": "Competition ELISA specificity, competitor C1P", "assay_type": "binding", "conditions": "maximum inhibition, n = 3", "method": "(§1) The specificity of the anti-LPA mAbs was assessed for their binding to LPA related biolipids such as distearoyl-phosphatidic acid, lysophosphatidylcholine, S1P, ceramide and ceramide-1-phosphate."}, "SKOV3 cell migration": {"test_system": "SKOV3 cell migration", "experiment": "SKOV3 migration assay", "assay_type": "cell-based, human", "conditions": "Lpathomab 150 μg/mL; 1 μM 18:1 LPA; n = 3"}, "[3]": {"experiment": "Competition ELISA specificity, competitor LPC", "assay_type": "binding", "conditions": "maximum inhibition, n = 3", "method": "as §1"}, "[4]": {"test_system": "renal cell carcinoma (Caki-1) cells", "experiment": "Cell monolayer scratch assay, Caki-1", "assay_type": "cell-based, human", "conditions": "mAb 10 μg/ml", "method": "An important characteristic of metastatic cancers is that the tumor cells escape contact inhibition and migrate away from their tissue of origin. […] Accordingly, we tested the ability of anti-LPA mAb to block LPA-dependent cell migration in several human cancer cell lines by using the cell monolayer scratch assay. Cells were seeded in 96 well plates and grown to confluence. After 24 h of starvation, the center of the wells was scratched with a pipette tip. In this art-accepted “scratch assay,” the cells respond to the scratch wound in the cell monolayer in a stereotypical fashion by migrating toward the scratch and close the wound. Progression of migration and wound closure are monitored by digital photography at 10× magnification at desired timepoints. Cells were not treated (NT), treated with LPA ([…]) with or w/o mAb B7 (10 μg/ml) or an isotype matching non-specific antibody (NS) (10 μg/ml). In untreated cells, a large gap remains between the monolayer margins following the scratch. LPA-treated cells in contrast, have only a small gap remaining at the same timepoint, and a few cells are making contact across the gap."}, "[5]": {"experiment": "Specificity of LT3000 against other lipids and proteins", "assay_type": "binding", "conditions": "over 100 lipids and proteins incl. over 20 bioactive lipids", "excerpt": "The murine antibody is a full-length IgG1k isotype antibody composed of two identical light chains and two identical heavy chains with a total molecular weight of 155.5 kDa."}, "[6]": {"experiment": "Competition ELISA specificity, competitor S1P", "assay_type": "binding", "conditions": "maximum inhibition, n = 3", "method": "as §1"}, "[7]": {"experiment": "Competition ELISA specificity, competitor Cer", "assay_type": "binding", "conditions": "maximum inhibition, n = 3", "method": "as §1"}, "[8]": {"test_system": "selected human cancer cell lines", "experiment": "LPA-induced cancer cell proliferation", "assay_type": "cell-based", "conditions": "addition of anti-LPA mAb", "method": "LPA is a potent growth factor supporting cell survival and proliferation by stimulation of Gi, Gq and G12/13 via GPCR-receptors and activation of downstream signaling events. Cell lines were tested for their proliferative response to LPA ([…]). Cell proliferation was assayed by using the cell proliferation assay kit from Chemicon (Temecula Calif.) (Panc-1) and the Cell-Blue titer from Pierce (Caki-1). Each data point is the mean of three independent experiments. […] Even though tumor-derived cells normally have high basal levels of proliferation, LPA appears to further augment proliferation in most tumor cell lines. Anti-LPA mAbs (B7 and B58) were assessed for the ability to inhibit LPA-induced proliferation in selected human cancer cell lines."}},
  "note": "Marks after values point to notes of the source that are not given here.",
  "data": [
    {"molecule": "B1", "values": [
      {"measurement": "MI, 16:0 LPA", "setting": "[1]", "value": 62.9, "unit": "%"},
      {"measurement": "MI (%), C1P", "setting": "[2]", "value": 1.0, "unit": "%"},
      {"measurement": "Migration, % Inhibition (over LPA taken as 100)", "setting": "SKOV3 cell migration", "value": "35* %"},
      {"measurement": "MI (%), LPC", "setting": "[3]", "value": 0, "unit": "%"},
      {"measurement": "LPA-stimulated migration", "setting": "[4]", "value": "inhibitory effect"},
      {"measurement": "binding affinity for other bioactive lipids and proteins", "setting": "[5]", "value": "no binding affinity"},
      {"measurement": "MI (%), S1P", "setting": "[6]", "value": 2.7, "unit": "%"},
      {"measurement": "MI (%), Cer", "setting": "[7]", "value": 1, "unit": "%"},
      {"measurement": "LPA-induced increase in proliferation", "setting": "[8]", "value": "mitigated"}
    ]}
  ]
}
